The record followed here is the supplement of paper PMC6755084.

For this data set, the system named is F1*sub RNA substrate (template-directed ligation). The data set can be described thus: fraction ligated after 30 min (ligated reads / total reads); higher = more ligase activity; sequences stand for … in GAGACCGCAACTGAAAAGTTGT…AGTTCTGCACGTAGAAGCAAAAGGC
The conditions noted are these: 42 °C. Put shortly:
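Templates from an oligo pool were PCR-amplified, transcribed with T7 and gel-purified to give the ribozyme variants. Ligated and unligated products were separated on gel, reverse transcribed using barcoded primers, and read on a MiSeq. A quality filter of ≥20 was applied to core bases. Fraction ligated was taken as ligated reads as a share of all reads per variant.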
“TATCACTTGTCAAGACACTTTGGATGGGTTGA [2d194]” yielded a fraction ligated of 0.809. “TATCACTTGTCAAGACACTTTGGATGGTTGA [3d1820]” had a fraction ligated of 0.288. The sequence “TATCACTTGTCAAGACACTTTGGTGGGTTGA [3d1818]” came in with a fraction ligated of 0.128. With “TATCACTTGTCAAGACATTTGGATGGGTTGA [3d1815]” the figure was 0.829; with “TATCACTTGTCAAGACCTTTGGATGGGTTGA [3d1814]”, 0.762; with “TATCACTTGTCAAGCACTTTGGATGGGTTGA [3d1812]”, 0.785. With “TATCACTTGTCAGACACTTTGGATGGGTTGA [3d1810]” the figure was 0.824. The figure for “TATCACTTGTCGAAAACTTTGGATGGGTTGA [3d1915]” is 0.798; for “TATCACTTGTCGAAACACTTGGATGGGTTGA [3d1918]” it is 0.776.

Take “TATCACTTGTCGAAACACTTTGATGGGTTGA [3d1919]”: the fraction ligated came to 0.721. For the sequence “TATCACTTGTCGAAACACTTTGGAGGGTTGA [3d1921]”, the fraction ligated is 0.0563. With “TATCACTTGTCGAAACACTTTGGATGGGTTA [3d1923]” the figure was 0.756. In turn, “TATCACTTGTCGAAACACTTTGGATGGGTTG [3d1924]” returned a fraction ligated of 0.817. The figure for “TATCACTTGTCGAAACACTTTGGATGGTTGA [3d1922]” is 0.0984. With “TATCACTTGTCGAAACACTTTGGTGGGTTGA [3d1920]” the figure was 0.0386; with “TATCACTTGTCGAAACATTTGGATGGGTTGA [3d1917]”, 0.821. “TATCACTTGTCGAAACCTTTGGATGGGTTGA [3d1916]” had a fraction ligated of 0.78. The figure for “TATCACTTGTCGAACACTTTGGATGGGTTGA [3d1903]” is 0.802; for “TATCACTTGTCGAAGAACTTGGATGGGTTGA [3d1936]” it is 0.794; for “TATCACTTGTCGAAGAACTTTGATGGGTTGA [3d1937]” it is 0.796. The figure for “TATCACTTGTCGAAGAACTTTGGAGGGTTGA [3d1939]” is 0.111.

Consider “TATCACTTGTCGAAGAACTTTGGATGGGTTA [3d1941]”, for which the fraction ligated was found to be 0.779. With “TATCACTTGTCGAAGAACTTTGGATGGGTTG [3d1942]” the figure was 0.798; with “TATCACTTGTCGAAGAACTTTGGATGGTTGA [3d1940]”, 0.187; with “TATCACTTGTCGAAGAACTTTGGTGGGTTGA [3d1938]”, 0.173.

In turn, “TATCACTTGTCGAAGAATTTGGATGGGTTGA [3d1935]” came in with a fraction ligated of 0.776. With “TATCACTTGTCGAAGACACTGGATGGGTTGA [3d1957]” the figure was 0.767; with “TATCACTTGTCGAAGACACTTGATGGGTTGA [3d1958]”, 0.663. The figure for “TATCACTTGTCGAAGACACTTGGAGGGTTGA [3d1960]” is 0.0758; for “TATCACTTGTCGAAGACACTTGGATGGGTTA [3d1962]” it is 0.721. With “TATCACTTGTCGAAGACACTTGGATGGGTTG [3d1963]” the figure was 0.794; with “TATCACTTGTCGAAGACACTTGGATGGTTGA [3d1961]”, 0.106; with “TATCACTTGTCGAAGACACTTGGTGGGTTGA [3d1959]”, 0.119. The sequence “TATCACTTGTCGAAGACACTTTATGGGTTGA [3d1964]” gave a fraction ligated of 0.16. The figure for “TATCACTTGTCGAAGACACTTTGAGGGTTGA [3d1966]” is 0.0437; for “TATCACTTGTCGAAGACACTTTGATGGGTTA [3d1968]” it is 0.15; for “TATCACTTGTCGAAGACACTTTGATGGGTTG [3d1969]” it is 0.732. The figure for “TATCACTTGTCGAAGACACTTTGATGGTTGA [3d1967]” is 0.0642. On to “TATCACTTGTCGAAGACACTTTGGAGGGTTA [3d1975]”, for which the fraction ligated came to 0.136. With “TATCACTTGTCGAAGACACTTTGGAGGGTTG [3d1976]” the figure was 0.08; with “TATCACTTGTCGAAGACACTTTGGAGGTTGA [3d1974]”, 0.0837; with “TATCACTTGTCGAAGACACTTTGGATGGGTT [3d1979]”, 0.763.

For “TATCACTTGTCGAAGACACTTTGGATGGGTTA [2d219]”, the fraction ligated was 0.803. With “TATCACTTGTCGAAGACACTTTGGATGGGTTG [2d220]” the figure was 0.856; with “TATCACTTGTCGAAGACACTTTGGATGGTTA [3d1977]”, 0.364; with “TATCACTTGTCGAAGACACTTTGGATGGTTG [3d1978]”, 0.432. The figure for “TATCACTTGTCGAAGACACTTTGGATGGTTGA [2d218]” is 0.615; for “TATCACTTGTCGAAGACACTTTGGGGGTTGA [3d1970]” it is 0.133; for “TATCACTTGTCGAAGACACTTTGGTGGGTTA [3d1972]” it is 0.103.

“TATCACTTGTCGAAGACACTTTGGTGGGTTG [3d1973]” returned a fraction ligated of 0.0779.

Sequence “TATCACTTGTCGAAGACACTTTGGTGGTTGA [3d1971]” had a fraction ligated of 0.0847.

In the case of “TATCACTTGTCGAAGACACTTTGTGGGTTGA [3d1965]”, the fraction ligated came out at 0.0368. The figure for “TATCACTTGTCGAAGACATTGGATGGGTTGA [3d1950]” is 0.787. Take “TATCACTTGTCGAAGACATTTGATGGGTTGA [3d1951]”: the fraction ligated was determined as 0.329. The figure for “TATCACTTGTCGAAGACATTTGGAGGGTTGA [3d1953]” is 0.021; for “TATCACTTGTCGAAGACATTTGGATGGGTTA [3d1955]” it is 0.788. In turn, “TATCACTTGTCGAAGACATTTGGATGGGTTG [3d1956]” displayed a fraction ligated of 0.801. For the sequence “TATCACTTGTCGAAGACATTTGGATGGTTGA [3d1954]”, the fraction ligated came out at 0.133. The figure for “TATCACTTGTCGAAGACATTTGGTGGGTTGA [3d1952]” is 0.05; for “TATCACTTGTCGAAGACCTTGGATGGGTTGA [3d1943]” it is 0.768; for “TATCACTTGTCGAAGACCTTTGATGGGTTGA [3d1944]” it is 0.76. With “TATCACTTGTCGAAGACCTTTGGAGGGTTGA [3d1946]” the figure was 0.198; with “TATCACTTGTCGAAGACCTTTGGATGGGTTA [3d1948]”, 0.773; with “TATCACTTGTCGAAGACCTTTGGATGGGTTG [3d1949]”, 0.79.

“TATCACTTGTCGAAGACCTTTGGATGGTTGA [3d1947]” had a fraction ligated of 0.299. With “TATCACTTGTCGAAGACCTTTGGTGGGTTGA [3d1945]” the figure was 0.218. The figure for “TATCACTTGTCGAAGACTTTGGATGGGTTGA [3d1925]” is 0.784. “TATCACTTGTCGAAGCACTTGGATGGGTTGA [3d1928]” returned a fraction ligated of 0.747. Sequence “TATCACTTGTCGAAGCACTTTGATGGGTTGA [3d1929]” registered a fraction ligated of 0.736. The sequence “TATCACTTGTCGAAGCACTTTGGAGGGTTGA [3d1931]” showed a fraction ligated of 0.108. The figure for “TATCACTTGTCGAAGCACTTTGGATGGGTTA [3d1933]” is 0.723. The figure for “TATCACTTGTCGAAGCACTTTGGATGGGTTG [3d1934]” is 0.783; for “TATCACTTGTCGAAGCACTTTGGATGGTTGA [3d1932]” it is 0.159; for “TATCACTTGTCGAAGCACTTTGGTGGGTTGA [3d1930]” it is 0.0884. Turning to “TATCACTTGTCGAAGCATTTGGATGGGTTGA [3d1927]”, the fraction ligated was 0.811. With “TATCACTTGTCGAAGCCTTTGGATGGGTTGA [3d1926]” the figure was 0.757. With “TATCACTTGTCGAGAACTTTGGATGGGTTGA [3d1905]” the figure was 0.819; with “TATCACTTGTCGAGACACTTGGATGGGTTGA [3d1908]”, 0.793. With “TATCACTTGTCGAGACACTTTGATGGGTTGA [3d1909]” the figure was 0.74. The sequence “TATCACTTGTCGAGACACTTTGGAGGGTTGA [3d1911]” came in with a fraction ligated of 0.104. For the sequence “TATCACTTGTCGAGACACTTTGGATGGGTTA [3d1913]”, the fraction ligated worked out at 0.765. With “TATCACTTGTCGAGACACTTTGGATGGGTTG [3d1914]” the figure was 0.797. The figure for “TATCACTTGTCGAGACACTTTGGATGGGTTGA [2d208]” is 0.816; for “TATCACTTGTCGAGACACTTTGGATGGTTGA [3d1912]” it is 0.166.

The sequence “TATCACTTGTCGAGACACTTTGGTGGGTTGA [3d1910]” came in with a fraction ligated of 0.0759.

The sequence “TATCACTTGTCGAGACATTTGGATGGGTTGA [3d1907]” displayed a fraction ligated of 0.829.

“TATCACTTGTCGAGACCTTTGGATGGGTTGA [3d1906]” had a fraction ligated of 0.788. With “TATCACTTGTCGAGCACTTTGGATGGGTTGA [3d1904]” the figure was 0.749; with “TATCACTTGTCGGACACTTTGGATGGGTTGA [3d1902]”, 0.785; with “TATCACTTGTCGTAAAACTTGGATGGGTTGA [3d2060]”, 0.782. With “TATCACTTGTCGTAAAACTTTGATGGGTTGA [3d2061]”, the fraction ligated turned out to be 0.781.

Sequence “TATCACTTGTCGTAAAACTTTGGAGGGTTGA [3d2063]” returned a fraction ligated of 0.0898. The figure for “TATCACTTGTCGTAAAACTTTGGATGGGTTA [3d2065]” is 0.764; for “TATCACTTGTCGTAAAACTTTGGATGGGTTG [3d2066]” it is 0.791; for “TATCACTTGTCGTAAAACTTTGGATGGGTTGA [2d234]” it is 0.818.

“TATCACTTGTCGTAAAACTTTGGATGGTTGA [3d2064]” showed a fraction ligated of 0.185. Sequence “TATCACTTGTCGTAAAACTTTGGTGGGTTGA [3d2062]” had a fraction ligated of 0.0841.
